From patent US20140294884A1 (Novartis, published 2014)

Experiments:
[1] = target: receptor for App on Chang conjunctiva epithelial cells (proteinaceous, not identified) (human); test: cell-based or functional assay
[2] = target: receptor for App on Chang conjunctiva epithelial cells (proteinaceous, not identified) (human); test: FACS binding assay on Chang cells (FIG. 35)
[3] = target: human receptor for NadA on Chang conjunctiva epithelial cells (pronase-sensitive protein, not identified) (human); test: FACS on Chang cells, MFI against protein concentration
[4] = target: the molecule itself; test: Western blot of whole cell lysates with anti-NadA serum (self-association)

## App S267A expressed on the surface of E. coli (pET-AppS267A transformants)
[1]
  fluorescence shift (cells positive to adhesion), FACS adhesion of E. coli to Chang cells: 91%

## App expressed from the full-length gene on the surface of E. coli (pET-App transformants)
[1]
  fluorescence shift (cells positive to adhesion), FACS adhesion of E. coli to Chang cells: 90.3%

## App-His
[2]
  concentration at which binding reaches a plateau: 50 µg/mL

## Appβ expressed on the surface of E. coli (pET-Appβ transformants)
[1]
  fluorescence shift, FACS adhesion of E. coli to Chang cells: 74.2%

## NadA (purified recombinant protein used in FACS binding to Chang cells)
[3]
  concentration at which binding reaches a plateau: 200 µg/mL

B1: NadA allele 2 (strain 90/18311) (other)
chain: ATNDDDVKKAATVAIAAAYNNGQEINGFKAGETIYDIDEDGTITKKDATAADVEADDFKGLGLKKVVTNLTKTVNENKQNVDAKVKAAESEIEKLTTKLADTDAALDATTNALNKLGENITTFAEETKTNIVKIDEKLEAVADTVDKHAEAFNDIADSLDETNTKADEAVKTANEAKQTAEETKQNVDAKVKAAETAAGKAEAAAGTANTAADKAEAVAAKVTDIKADIATNKDNIAKKANSADVYTREESDSKFVRIDGLNATTEKLDTRLASAEKSITEHGTRLNGLDRTVSDLRKETRQGLAEQAALSGLFQPYNVGRFNVTAAVGGYKSESAVAIGTGFRFTENFAAKAGVAVGTSSGSSAAYHVGVNYEW
notes: also called allele 2 of 961
[4]
  binding result: binds

B2: NadA allele 1 (strain MC58) (other)
chain: ATSDDDVKKAATVAIVAAYNNGQEINGFKAGETIYDIGEDGTITQKDATAADVEADDFKGLGLKKVVTNLTKTVNENKQNVDAKVKAAESEIEKLTTKLADTDAALADTDAALDETTNALNKLGENITTFAEETKTNIVKIDEKLEAVADTVDKHAEAFNDIADSLDETNTKADEAVKTANEAKQTAEETKQNVDAKVKAAETAAGKAEAAAGTANTAADKAEAVAAKVTDIKADIATNKADIAKNSARIDSLDKNVANLRKETRQGLAEQAALSGLFQPYNVGRFNVTAAVGGYKSESAVAIGTGFRFTENFAAKAGVAVGTSSGSSAAYHVGVNYEW
notes: Oligomer of about 170 kDa; also called allele 1 of 961
[4]
  binding result: binds
